From patent US6403087

Experiments:
[1] = target: surface TNF receptors on HT29 cells; experiment: cell-based or functional assay
[2] = target: murine surface LT ligand on PMA-activated TIMI-4 cells (mouse) (UniProt P09225); experiment: FACS on TIMI-4 cells; mAb at 0.1 µg/ml preincubated, washed, then 1 µg/ml mLT-β-R-Fc
[3] = target: murine surface LT ligand on PMA-activated TIMI-4 cells (mouse) (UniProt P09225); experiment: FACS on TIMI-4 cells; mAb at 0.3 µg/ml preincubated, washed, then 1 µg/ml mLT-β-R-Fc
[4] = target: murine surface LT ligand on PMA-activated TIMI-4 cells (mouse) (UniProt P09225); experiment: FACS on TIMI-4 cells; mAb at 1.0 µg/ml preincubated, washed, then 1 µg/ml mLT-β-R-Fc
[5] = target: murine surface LT ligand on PMA-activated TIMI-4 cells (mouse) (UniProt P09225); experiment: FACS on TIMI-4 cells; mAb at 3.0 µg/ml preincubated, washed, then 1 µg/ml mLT-β-R-Fc
[6] = target: murine surface LT ligand on PMA-activated TIMI-4 cells (mouse) (UniProt P09225); experiment: FACS on TIMI-4 cells; mAb at 0.01 µg/ml preincubated, washed, then 1 µg/ml mLT-β-R-Fc
[7] = target: murine surface LT ligand on PMA-activated TIMI-4 cells (mouse) (UniProt P09225); experiment: FACS on TIMI-4 cells; mAb at 0.03 µg/ml preincubated, washed, then 1 µg/ml mLT-β-R-Fc
[8] = target: murine surface LT ligand on PMA-activated TIMI-4 cells (mouse) (UniProt P09225); experiment: FACS on TIMI-4 cells; mAb at 10.0 µg/ml preincubated, washed, then 1 µg/ml mLT-β-R-Fc
[9] = target: murine surface LT ligand on PMA-activated TIMI-4 cells (mouse) (UniProt P09225); experiment: FACS on TIMI-4 cells; mAb at 30.0 µg/ml preincubated, washed, then 1 µg/ml mLT-β-R-Fc
[10] = target: murine surface LT ligand on PMA-activated TIMI-4 cells (mouse) (UniProt P09225); experiment: FACS on TIMI-4 cells; mAb at 100.0 µg/ml preincubated, washed, then 1 µg/ml mLT-β-R-Fc

murine surface LT ligand on PMA-activated TIMI-4 cells (mouse), sequence (P09225 34-202, chain 1 of 2): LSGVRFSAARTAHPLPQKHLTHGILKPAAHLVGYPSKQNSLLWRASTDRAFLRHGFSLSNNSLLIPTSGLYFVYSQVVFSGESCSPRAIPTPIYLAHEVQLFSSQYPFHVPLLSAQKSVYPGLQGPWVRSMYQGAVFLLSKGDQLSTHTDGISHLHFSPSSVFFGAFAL
murine surface LT ligand on PMA-activated TIMI-4 cells (mouse), sequence (P41155 whole entry, chain 2 of 2, further chain): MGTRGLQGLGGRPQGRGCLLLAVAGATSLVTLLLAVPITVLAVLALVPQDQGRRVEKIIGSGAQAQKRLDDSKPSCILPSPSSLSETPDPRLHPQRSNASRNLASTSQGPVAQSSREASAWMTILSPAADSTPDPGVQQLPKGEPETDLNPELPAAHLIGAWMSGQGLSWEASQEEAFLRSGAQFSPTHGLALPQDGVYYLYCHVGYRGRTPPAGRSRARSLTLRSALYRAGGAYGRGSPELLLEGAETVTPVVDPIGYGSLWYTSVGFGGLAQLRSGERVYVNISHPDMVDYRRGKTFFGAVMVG
hTNF, sequence (P01375 77-233 limits assumed): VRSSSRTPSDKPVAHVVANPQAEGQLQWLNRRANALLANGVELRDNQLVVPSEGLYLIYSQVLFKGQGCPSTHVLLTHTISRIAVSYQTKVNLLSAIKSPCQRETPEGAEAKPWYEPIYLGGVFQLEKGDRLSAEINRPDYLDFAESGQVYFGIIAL

% Inh (Percent Inhibition) of mLT-β-R-Fc binding [2] | MFCI (Mean Fluorescence Channel No.) of bound mLT-β-R-Fc [2] | % Inh (Percent Inhibition) of mLT-β-R-Fc binding [3] | MFCI (Mean Fluorescence Channel No.) of bound mLT-β-R-Fc [3] | % Inh (Percent Inhibition) of mLT-β-R-Fc binding [4] | MFCI (Mean Fluorescence Channel No.) of bound mLT-β-R-Fc [4] | % Inh (Percent Inhibition) of mLT-β-R-Fc binding [5] | MFCI (Mean Fluorescence Channel No.) of bound mLT-β-R-Fc [5] | % Inh (Percent Inhibition) of mLT-β-R-Fc binding [6] | MFCI (Mean Fluorescence Channel No.) of bound mLT-β-R-Fc [6] | % Inh (Percent Inhibition) of mLT-β-R-Fc binding [7] | MFCI (Mean Fluorescence Channel No.) of bound mLT-β-R-Fc [7] | % Inh (Percent Inhibition) of mLT-β-R-Fc binding [8] | MFCI (Mean Fluorescence Channel No.) of bound mLT-β-R-Fc [8] | % Inh (Percent Inhibition) of mLT-β-R-Fc binding [9] | MFCI (Mean Fluorescence Channel No.) of bound mLT-β-R-Fc [9] | % Inh (Percent Inhibition) of mLT-β-R-Fc binding [10] | MFCI (Mean Fluorescence Channel No.) of bound mLT-β-R-Fc [10] | Substance | Concentration of Cytotoxic Agent (ng/ml) Resulting in 50% Growth Inhibition of HT29 cells, in the presence of 5 µg/ml hu-IgG control [1]
 |  |  |  |  |  |  |  |  |  |  |  |  |  |  |  |  |  | hLT-α (from UniProt P01374 35-205) (ligand) | 3 ng/mL
 |  |  |  |  |  |  |  |  |  |  |  |  |  |  |  |  |  | hTNF (from UniProt P01375 77-233) (ligand) | 0.08 ng/mL
0% | 86 channel no. | 2% | 84 channel no. | 0% | 89 channel no. | 0% | 88 channel no. | 2% | 84 channel no. | 0% | 86 channel no. | 0% | 95 channel no. | 0% | 94 channel no. | 0% | 92 channel no. | hamster anti-mLT-α mAb AF.B3 (antibody) | 
44% | 51 channel no. | 62% | 36 channel no. | 71% | 29 channel no. | 86% | 17 channel no. | 18% | 71 channel no. | 23% | 67 channel no. | 94% | 11 channel no. | 95% | 10 channel no. | 98% | 8 channel no. | hamster anti-mouse LT-α/β mAb BB.F6 (antibody) | 
